From article PMC5001930 (Biological psychiatry, 2016)

Target: MET receptor tyrosine kinase (mouse (endogenous in neocortical …, UniProt P16056 25-1379))
Test: co-IP

Row | mean fold change (HGF/PBS) of binding | Binder
1 | 0.95 fold | NTRK3 (receptor) not shown
2 | 1.35 fold | GRM5 (receptor, UniProt Q3UVX5 19-1203, looked up) SAQSSERRVVAHMPGDIIIGALFSVHHQPTVDKVHERKCGAVREQYGIQRVEAMLHTLERINSDPTLLPNITLGCEIRDSCWHSAVALEQSIEFIRDSLISSEEEEGLVRCVDGSSSFRSKKPIVGVIGPGSSSVAIQVQNLLQLFNIPQIAYSATSMDLSDKTLFKYFMRVVPSDAQQARAMVDIVKRYNWTYVSAVHTEGNYGESGMEAFKDMSAKEGICIAHSYKIYSNAGEQSFDKLLKKLRSHLPKARVVACFCEGMTVRGLLMAMRRLGLAGEFLLLGSDGWADRYDVTDGYQREAVGGITIKLQSPDVKWFDDYYLKLRPETNLRNPWFQEFWQHRFQCRLEGFAQENSKYNKTCNSSLTLRTHHVQDSKMGFVINAIYSMAYGLHNMQMSLCPGYAGLCDAMKPIDGRKLLDSLMKTNFTGVSGDMILFDENGDSPGRYEIMNFKEMGKDYFDYINVGSWDNGELKMDDDEVWSKKNNIIRSVCSEPCEKGQIKVIRKGEVSCCWTCTPCKENEYVFDEYTCKACQLGSWPTDDLTGCDLIPVQYLRWGDPEPIAAVVFACLGLLATLFVTVIFIIYRDTPVVKSSSRELCYIILAGICLGYLCTFCLIAKPKQIYCYLQRIGIGLSPAMSYSALVTKTNRIARILAGSKKKICTKKPRFMSACAQLVIAFILICIQLGIIVALFIMEPPDIMHDYPSIREVYLICNTTNLGVVTPLGYNGLLILSCTFYAFKTRNVPANFNEAKYIAFTMYTTCIIWLAFVPIYFGSNYKIITMCFSVSLSATVALGCMFVPKVYIILAKPERNVRSAFTTSTVVRMHVGDGKSSSAASRSSSLVNLWKRRGSSGETLRYKDRRLAQHKSEIECFTPKGSMGNGGRATMSSSNGKSVTWAQNEKSTRGQHLWQRLSVHINKKENPNQTAVIKPFPKSTESRGQGAGAGGGSGPGAAGAGSAGCTATGGPEPPDAGPKALYDVAEAEERFPAAARPRSPSPISTLSHLAGSAGRTDDDAPSLHSETAARSSSSQGSLMEQISSVVTRFTANITELNSMMLSTAAAPGPPGTPICSSYLIPKEIQLPTTMTTFAEIQPLPAIEVTGGAQPATGPSPAQETPAGAEAAPGKPDLEELVALTPPSPFRDSVDSGSTTPNSPVSESALCIPSSPKYDTLIIRDYTQSSSSL

Row | Binder | mean fold change (HGF/PBS) of binding
3 | SYNGAP1 (natural protein, UniProt F6SEU4 1-1340, looked up) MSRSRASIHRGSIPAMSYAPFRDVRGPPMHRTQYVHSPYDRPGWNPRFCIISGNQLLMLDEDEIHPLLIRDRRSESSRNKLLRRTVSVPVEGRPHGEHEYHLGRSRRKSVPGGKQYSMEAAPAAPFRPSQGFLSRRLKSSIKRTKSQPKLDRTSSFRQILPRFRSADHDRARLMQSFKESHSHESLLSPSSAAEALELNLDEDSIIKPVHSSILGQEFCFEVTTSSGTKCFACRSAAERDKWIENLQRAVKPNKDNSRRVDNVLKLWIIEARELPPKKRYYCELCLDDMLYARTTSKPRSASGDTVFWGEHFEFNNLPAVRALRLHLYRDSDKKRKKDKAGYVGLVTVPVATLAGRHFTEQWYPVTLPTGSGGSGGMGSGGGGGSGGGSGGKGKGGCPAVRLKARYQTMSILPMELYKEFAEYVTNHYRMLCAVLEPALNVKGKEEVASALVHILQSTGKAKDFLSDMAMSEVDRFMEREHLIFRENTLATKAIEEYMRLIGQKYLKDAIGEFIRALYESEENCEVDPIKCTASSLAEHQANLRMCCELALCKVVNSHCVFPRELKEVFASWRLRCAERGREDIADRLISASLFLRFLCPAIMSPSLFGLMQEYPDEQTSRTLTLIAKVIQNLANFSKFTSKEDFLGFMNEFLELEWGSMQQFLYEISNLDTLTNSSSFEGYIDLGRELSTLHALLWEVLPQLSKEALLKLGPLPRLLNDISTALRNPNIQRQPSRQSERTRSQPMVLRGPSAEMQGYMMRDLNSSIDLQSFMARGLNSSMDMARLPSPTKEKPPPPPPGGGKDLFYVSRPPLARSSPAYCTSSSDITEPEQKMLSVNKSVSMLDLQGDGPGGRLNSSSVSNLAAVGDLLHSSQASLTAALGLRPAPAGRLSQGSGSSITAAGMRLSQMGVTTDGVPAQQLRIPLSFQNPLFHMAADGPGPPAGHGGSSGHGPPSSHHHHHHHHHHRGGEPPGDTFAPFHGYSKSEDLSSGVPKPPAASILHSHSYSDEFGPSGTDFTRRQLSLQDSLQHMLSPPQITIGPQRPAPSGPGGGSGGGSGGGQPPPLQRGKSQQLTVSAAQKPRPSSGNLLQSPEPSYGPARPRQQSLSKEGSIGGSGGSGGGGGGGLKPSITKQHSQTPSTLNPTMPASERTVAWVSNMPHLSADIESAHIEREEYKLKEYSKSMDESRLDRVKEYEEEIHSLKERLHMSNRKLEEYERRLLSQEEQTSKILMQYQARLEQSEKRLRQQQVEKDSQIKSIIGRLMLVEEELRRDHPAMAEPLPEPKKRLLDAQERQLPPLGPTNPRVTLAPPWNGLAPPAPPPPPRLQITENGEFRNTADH | 0.63 fold
